40 sequences from the nanobody polyreactivity screen of Harvey et al. (2022) can be followed below.

The nature of this series: yeast display, Sf9 membrane polyspecificity reagent, FACS + sequencing; frameworks hold sequencing errors. The gist of the method:
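A nanobody's polyreactivity label depends on the gate it was sorted from. Yeast display cells were stained with 10% biotinylated, detergent-solubilized Sf9 membrane reagent for 1 hour at 4 °C, enriched on streptavidin microbeads and sorted by FACS. The low and high (top ~1%) gates were set on anti-HA fluorescence for expression and streptavidin fluorescence for reagent binding.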
For the sequence “QVQLVESGGGLFQAGVSLRISCAASGFIFDRNAMGWYRQAPGKERELVAVINSGGSTYYADSVKGRFTISRDNAKNTVYLQMNCLKPEDTAVYYCAAVRSRYGREYYYWGQGTQVTVSS”, the “polyreactivity (PSR sort gate)” value was “high polyreactivity”.
Next, “QVQLVESGGGLVQAGGSLRLSCAASGRTFALNTMGWYRQAPGKERELVAAITIGGSTYYADSVKGRFTISRDNAKNTVYLQMNSLKPEDTAVYYCAARTRGAWAYWGQGTQVTVSS”: “high polyreactivity”.
On to “QVQLVESGGGLDQAGGSLRLSSAASGITFYGYDMGWYRQAPGKARELVAAITSDGITNYADSVKGRFTFSRDNAKNTVYLHMNSLKPEDTAVYYCAADLSFYRRYEWYYYWGQGTQVTVSS”, for which the “polyreactivity (PSR sort gate)” value is “low polyreactivity”.
Take “QVHLVESGGGLVQAGGSLRLSCAASGSTVYNAMGWYRQAPGKERELVAVITDSDGSTYYADSVKGRFTISRDNAKNTVYLQMNSLKPEDTAVYYCAVTAIALYYSSGYYWGQGTQVTVSS”: the “polyreactivity (PSR sort gate)” value was “low polyreactivity”.
As to “QVQHVESGGGLVQAGGSLRLSCAASGRTSYGNTMGWYRQAPGKERELVATISGGGSTNYADSVKGRFTISRDNAKNTVYLQMNSLKPDDTAVYYCAARRYPFPGYRYYYWGQGTQVTVSS”, the “polyreactivity (PSR sort gate)” value is “high polyreactivity”.
Regarding “QVQLVESGGGLVQAGGSLRLSCAASGSTFGENAMGWYRQAPGKERELVAGINSTGGSTYYADSVKGRFTISRDNAKNTVSLQMNSLKPEDTAVYYCAAGDWYSGNTSHFYYWGQGTQVTVSS”, the “polyreactivity (PSR sort gate)” value is listed as “low polyreactivity”.
On to “QVQLVESGGGLVQAGGSLRLSCAASGIIFEYYDMGWYRQAPGKERELVAAIDSGGSTYYADSVKGRFTISRDNAKNTVYLQMNSLKPEDTAVYYCAAETVRYEWGESPAALFDYWGQGTQVTVSS”, for which the “polyreactivity (PSR sort gate)” value is recorded as “low polyreactivity”.
Take “QVQLVESGGGLVQAGGSLRLICDASGFTFGVYAMGWYRQAPGKETELVAAISTTVGSTYYADSVKGRFTISRDNAKNNVYLQLNRLKPEDTALYYCAAEYTGYLNYYIYEYWGQGTQVTVSS”: the “polyreactivity (PSR sort gate)” value is “low polyreactivity”.
Consider “QVQLVESGGGLVQAGGSLRLICAASGRTFVYYAMGWYRQAPGKERELLAANSLSGSTYYAYSVKGRVTISRDNAKNTVDLHMYSLKPDDTAVYYCARPGGPDRTSSPYPYPYGYWGQGTQVTVSS”, for which the “polyreactivity (PSR sort gate)” value is reported as “low polyreactivity”.
For “QVQLVESGGGLVQAGGSLRLSCAASGSILYGNDMGWYRQAPGKERELVANITSSDSTYYADSVKGRFTISRDNAKNTVYLQMNSLKPEDTAVYYCASDDVGWGYYVYSYPYDYWGQGTQVNVSS”, the “polyreactivity (PSR sort gate)” value was “low polyreactivity”.
As to “QVQLVESGGGLVQAGGSLRLSCAASGSIFVLNAMGWYRQAPGKERELVAAISSADSTTYADSVKGRFTISRDNAKNSVYLQMNSLKPEDTAVYYCAADWWYVLIFDYWGQGTQVTVSS”, the “polyreactivity (PSR sort gate)” value is “low polyreactivity”.
Regarding “QVQLVESGGGLVQAGGSLRLSCADSGSTFVLNAMGWYRQAPGKERELVAAISRCGASTYYADSVKGRFTISRDNAKNTVYLQMNSLKPEDTAVYYCNASGYGPGVVIYLVLYDYWGQGTQVTVSS”, the “polyreactivity (PSR sort gate)” value is recorded as “low polyreactivity”.
As for “QVQLQESGGGLVQAGGSLRLSCAASGSIFDGFNMGWYRQAQGKEREFVAAISYGASTYYADSVKGRFTVSRDNAKNSVYLQMNSLKPEDTAVYYCAVYDELYHVLVYWGRGTQVTVSS”, the “polyreactivity (PSR sort gate)” value is on record as “low polyreactivity”.
Regarding “QVQLVESGGGLVQAGGSLRLSCAASGSTFGANAMGWYRQAPGKERELVATISSGGRTYYADSVKGRFTISRDNAKNTVYLQMNSLKPEDTAVYYCNAGADYTYVYISVYVLYDYWGQGTQVTVSS”, the “polyreactivity (PSR sort gate)” value is “low polyreactivity”.
“QVQLVESGACLVQAGGSLRLSCAASGITLVNYAMGWYRQAPGKERELVAAISASGGSTYYADSVKGRFTISRDNAKNNVYLQMNSLKPEDTAVYYCAAEEEEFIYDYWGQGTQVTVSS”: the “polyreactivity (PSR sort gate)” value was “high polyreactivity”.
Turning to “QVQLVESGGGLVQAGGSLRISCAASGSTFWGYDKGWYRQAPGKERELVAAITRNGGGTYYADSVKGRFTISRDNAKNTVYLQMNSLKPEDTAVYYCASTRGAYYLYGGHKMDYWGQGSQVTVSS”, the “polyreactivity (PSR sort gate)” value is “high polyreactivity”.
“QVQIVESGGGLVQAGGSLRLSCAASGSTFPSYAMGWYRQATGKEREWVAAITRSCGRTYYADSVKGRFTISRDNSKHTVYLQMNSLKPEDTAVYYCAADLGSNYDYWGQGTQVTVLS”: the “polyreactivity (PSR sort gate)” value is recorded as “low polyreactivity”.
Consider “QDQLVESGGGLVQAGGSLRLSCAASGSIFTSYAMGWYRQAPGKERELVAAITGGDSTNYADSVKGRFTISRDNAKNTVYLQMNSLKPEDTAVYYCNAADPNYFDRDTHYYWGQGTQVTVSS”, for which the “polyreactivity (PSR sort gate)” value was “low polyreactivity”.
With “QVQLVESGGGLVQAGGSLRLSCAASGRIFYINVMGWYRQAPGKERELVAGITWIGGSTYADSVKGRFTISRDNAKNTVYLQMNSLKPEVTAVYYCNADPDFTVYRYLWPEGVEYWGQGTQVTVSS”, the “polyreactivity (PSR sort gate)” value is on record as “low polyreactivity”.
With “QVQLVESGGGLVQAGGSLRLSCAASGSTFGRYAMGWYRQAPGKERELVAAISASGGSTYYADSVKGRFTISRDNAKNTVYLLMNSLKPEDTAVYYSAALIDVITGQYDYWGQGTQVTVSS”, the “polyreactivity (PSR sort gate)” value is “high polyreactivity”.
Next, “QVQLVESGGGLVQAGGSLRLSCAASGSIFYSNMGWYRPAPGKEREFVAAISGSGVRTYYADSVKGRFTISRDNAKKTVYLQMNSLKPEDTAVYYCNAGRRQDNRYNYWGQGTQVTVSS”: “high polyreactivity”; “QVQLVESGGGLVQAGGSLRLSCAASGRTFSKYTMGWYRQAPGKERELVAVISRSGTRTYYADSVKGRFTISRDNAKNTVYLQMNSLKPEDTAVYYCAAKDERRSFGMGYWGQGPQVTVSS”: “high polyreactivity”.
On to “QVQLVESGGGLVQAGGSLRLSCAASGRIFGDYAMGWYRQAPGKERELVAAINSSGTSTNYADSVKGRFTISRDNAKNTVYLQMNSLKPEDTAVYYCNAEGTYRPDYDSWGQGTQVTVSS”, for which the “polyreactivity (PSR sort gate)” value was “low polyreactivity”.
For the sequence “QVQLVESGGGLVQAGGSLRLSCAASGRIFWPYAMGWYRQAPGKERELVAAITSGGSTYYADSVKGRFTISRDNAKNTVYLQMNSLKPEDTAVYYCAKRSSGVSVPVAYGGIKRYNSWGQGTQVTVSS”, the “polyreactivity (PSR sort gate)” value was “low polyreactivity”.
As for “QVQLVESGGGLVQAGGSLRLSCAASGSIFWTYAMGWYRQAPGKERELVAAITTGGSTYYADSVKGRFTISRDNAKNTVYLQMNSLKPEDTAVYYCAVDHLTRSGDGEYWGQGTQVTVSS”, the entry is “high polyreactivity”; as for “QVQHVESGGGLVQAGGSLRLSCAASGNIFVAYAMGGYRQAPGKERELVAAITSGGRTYADSVKGRFTISRDNAKNTVYLQMNSLKPEDTAVYYCNADPYYVYLGYYDRYYSGYGYWGQGTQVTVSS”, “low polyreactivity”; as for “QVQLVESGGGLVQAGGSLRLSCAASGFTFTYYVMGWYRQAPGKDRELVAAISQGGGSTYYADSVKGRFTISRDNAKNTVYLQMNSLKPEDTAVYYCAARRVGYGTDRYYGYDSWGQGTQVTVSS”, “high polyreactivity”.
As for “QVQLVESGGGLVQAGGSLRLSCAASGVIFVWYAMGWYRQAPGKERELVAAISSGGSTYYADSVKGRFTISRDNAKNTVYLQMNSLKPEDTAVYYCAADLWYYAYSYDYWGQGTQVTVSS”, the “polyreactivity (PSR sort gate)” value was “high polyreactivity”.
As for “QFQLVESGGGLVQAGGSLRLSCAASGSIFLAYDMGWYRQAPGKERELVAGITSGGTTYYADSVKGRFTISRDNAKNTVYLQMNSLKPADTAVYYCAALLYTPYYYWGQGTQVTVSS”, the entry is “low polyreactivity”.
Next, “QVQLVESGGGLVQAGGSLRISCAASGSNFRTYVMGWYRQAPGKERELVAAISRRGGSTYYADSVKGLFTISRDNAKKTVYLQMNSLKPEDTAVYYCAAEDEYSLEFSTLDYWGQGTQVTVSS”: “high polyreactivity”.
Turning to “QVQLVESGGGLVQAGGSLRLSCAASGRIFSSYAMGWYRQAPGKERELVASIDWSDGSTYYADSVKGRFTIARDNAKNTVYLQMTSLKPEDTAVYYCAADFVPYLIYGYWGQGTQVTVTS”, the “polyreactivity (PSR sort gate)” value was “low polyreactivity”.
For “QVQLVESGGGLVQAGGSLRLSCAASGSTSANYAMGWYRPAPGKERELVAAISGGARTNYADSVKGRFTISRDNAKNTVYLQMNSLKPEDTAVYYCATDAYYYNLLYLFPRYDYWGQGTQVTVSS”, the “polyreactivity (PSR sort gate)” value is on record as “low polyreactivity”.
Next, “QVQLVESGGGLVQAGGSLRLSCAASGRILYAYAMGWYRQAPGKERELVAAITWGGGNTYYADSVKGRFTISRDNAKNTVYLQMNSLKPEDTAVYYCAADASTVYSTVPEYDFWGQGTQVTVSS”: “low polyreactivity”; “QVQLVESGGGLVQAGGSLRLSCAASGRILGDYAMGWYIQAPGKERELVAAISSGGTTYYADSVKGRFTISRDNAKNTVYLQMNSLKPEDTAVYYCAALTSTLPAYGYWGQGTQVTVSS”: “low polyreactivity”; “QVQLVESGGGLVQAGGSLRLSCAASGSIFYWYAMGWYRQAPGKERELVAAITSSSGRTRYADSVKGRFTISRDNAKNTVYLQMNSLKPEDTAVYYCAAGRWGSYYTPRPYGYWGQGTQVTVSS”: “high polyreactivity”.
Turning to “QVQLVESGGGLVQAGGSLRLSCAASGSTFKRYAMGLYRQAPGKERELVASIPSAASTYYADSVKGRFSISRDNAKNTVNLQMNSLKPEDTAVYYCAASAYSALYYWYDYWGQGTQVTVSS”, the “polyreactivity (PSR sort gate)” value is on record as “high polyreactivity”.
In the case of “QVQLVESGGGLVQAGGSLRLSCAASGFIFDPYAMGWYRQAPGTERELVASINTRGDRTSYADSVKGRFTISRDNAKNTVYLQMNSLKPEDTAVYYCNADAVDQVGPDDDYWGQGTQVTVSS”, the “polyreactivity (PSR sort gate)” value is recorded as “low polyreactivity”.
For “QVQLVESGGGLVQAGGSLRLSCAASGRIFRKYAMGWSRQAPGKERELVAAISVGGGSTRYADSVKGRFTISRDNAKNTVYLQMNSLKDEDTAVYYCAADWAYYVASYLYYTFDYWGQGTQVTVSS”, the “polyreactivity (PSR sort gate)” value is reported as “low polyreactivity”.
Turning to “QVQLVESGGGLVQAGGSLRLSCAASGITFPGYAMGWYRQAPGKERELVAAIDRSGDGTYYADSVKGRFTISRDNAKNTVYLQMNSLKPEDPAVYYCAKDNYPNHSTVLAVIYDYWGQGTQVTVSS”, the “polyreactivity (PSR sort gate)” value is on record as “low polyreactivity”.
As for “QVQLVESGGGLVQAGGSLRLSCAASGSILPYYAMGWYRQAQGKERELLATITDGTDTYYADSVKGRFTISRDNAKNTVYLPMNSLKPEDTAVYYCNADGYVYYLHEDYWGQGTQVTVSS”, the entry is “low polyreactivity”.
